From patent publication US20020119121A1, “Compositions and methods for inducing specific cytolytic T cell responses” (priority 2000, published 2002)

Tests used:
[1] = system: JY (A2+) and 221 (A2-) 51Cr-labeled target cells; assay: 51Cr-release assay of HLA-A2 specific CTL activity induced in purified CD8+ TL by dendritic cells
[2] = system: class I molecules, TAP transporters, PA28, immunoproteasomes in monocytes/DC; assay: Expression of class I molecules, TAP transporters, PA28 and immunoproteasomes by flow cytometry and immunoprecipitation; type: cell-based, human; settings: treatment of immature DC
From the text: To determine if the differences observed between DC treated with LPS, TNF-α, or CD40L in inducing CTL activity of CD8^+ T cells were due to differences in antigen processing and presentation capacity of monocytes, immature DC, and mature DC, the expression levels of class I molecules, TAP transporters, PA28 (an immunoproteasome regulator), and immunoproteasomes were examined by flow cytometry (FACScan, Benton Dickenson, Milano, Italy) and immunoprecipitation with appropriate antibodies. […] The level of expression of class I molecules was further increased by two fold upon treatment with LPS, CD40L, or TNF-α.

[3] = system: JY (A2+) and 221 (A2-) 51Cr-labeled target cells
[4] = system: 51Cr-labeled recipient LB; assay: Inhibition of LB-directed cytotoxicity by granule exocytosis pathway blockers; settings: CMA 1, 10, 100 nM/L for 2 h or SrCl2 5, 25, 50 mM/L for 18 h; one mean given for either reagent; FIG. 5 E:T 5:1
From the text: Cytolytic activity of a CTL refers to the secretion of the contents of secretory granules into the immediate vicinity of the target cell to which it attaches. The granules contain perforins, various lysosomal enzymes, and calcium binding proteins that destroy the target cell.

lipopolysaccharide [LPS]
induction of cytotoxic activity from purified CD8+ T cells by treated DC ([1]; DC treated with LPS 20 ng/ml, TNF-α 20 ng/ml (40 h) or irradiated CD40L-transfected cells, FIG. 1A): only CD40L treated DC were capable of inducing cytotoxic activity
further increase of expression of class I molecules [2]: two fold

tumor necrosis factor-α [TNF-α]
further increase of expression of class I molecules [2]: two fold

IL-12: cytokine interleukin-12
substitution for CD40L in inducing cytotoxic activity [3]: two of the four

C/C=C/[C@H]1O[C@@](O)([C@@H](C)[C@H](O)[C@H](C)[C@H]2OC(=O)/C(OC)=C/C(C)=C/[C@@H](C)[C@@H](O)[C@@H](CC)[C@@H](O)[C@H](C)C/C(C)=C/C=C/[C@@H]2OC)C[C@@H](O[C@H]2C[C@@H](O)[C@H](OC(N)=O)[C@@H](C)O2)[C@@H]1C [CMA, concanamycin A]
mean inhibition of LB-directed cytotoxicity [4]: 87%

IL-6: lymphokine added to the CTL induction culture
effect of addition on cytotoxic activity [3]: no effect

IL-4: lymphokine added to the CTL induction culture
effect of addition on cytotoxic activity [3]: no effect

IL-7: cytokine interleukin-7
effect on cytotoxic activity induced by immature DC [3]: no effect
enhancement of cytotoxic activity [3]: approximately three fold

B1: CD40L: CD40 Ligand, supplied as irradiated CD40L-transfected cells added to immature DC; dendritic cell maturation factor (protein, UniProt P29965 1-261, looked up)
chain: MIETYNQTSPRSAATGLPISMKIFMYLLTVFLITQMIGSALFAVYLHRRLDKIEDERNLHEDFVFMKTIQRCNTGERSLSLLNCEEIKSQFEGFVKDIMLNKEETKKENSFEMQKGDQNPQIAAHVISEASSKTTSVLQWAEKGYYTMSNNLVTLENGKQLTVKRQGLYYIYAQVTFCSNREASSQAPFIASLCLKSPGRFERILLRAANTHSSAKPCGQQSIHLGGVFELQPGASVFVNVTDPSQVSHGTGFTSFGLLKL
modifications: full-length expressed on irradiated transfected cells
notes: CD40 Ligand, supplied as irradiated CD40L-transfected cells added to immature DC; dendritic cell maturation factor
CD8+ cell populations in which CTL activity was detected ([1]; CD40L-treated DC, four CD8+ populations tested): three of the four
further increase of expression of class I molecules [2]: two fold
